± gives the uncertainty stated by the source.
B1: POU domain, class 2, transcription factor 1, residues 285 to 354; numbered along this chain, P14859 (parent)
chain: LEELEQFAKTFKQRRIKLGFTQGDVGLAMGKLYGNDFSQTTISRFEALNLSFKNMCKLKPLLEKWLNDAE

Variants of: B1
Test: abundance fitness (aPCA) (normalised: wild type 0, dead -1); higher = more abundant; growth selection in yeast, the domain comes from the species named
Conditions: Homo sapiens

Row | Variant | abundance fitness
1 | LEELEQFAKTFKQRRIKLGFTQGDVGLAMGKLYGNDFSQTTISRFEALNLSFKNMCKLKCLLEKWLNDAE [P60C] | -0.051 ± 0.058
2 | LEELEQFAKTFKQRRIKLGFTQGDVGLAMGKLYGNDFSQTTISRFEALNLSFKNMCKLKALLEKWLNDAE [P60A] | -0.066 ± 0.077
3 | LEELEQFAKTFKQRRIKLGFTQGDVGLAMGKLYGNDFSQTTISRFEALNLSFKNSCKLKPLLEKWLNDAE [M55S] | -0.1 ± 0.024
4 | LEELEQFAKTFKQRRIKLGFTQGDVGLAMGKLYGNDFSQTTISRFEALNLSFKNYCKLKPLLEKWLNDAE [M55Y] | -0.153 ± 0.027
5 | LEELEQFAKTFKQRRIKLGFTQGDVGLAMGKLYGNDFSQTTISRFEALNLSFKNQCKLKPLLEKWLNDAE [M55Q] | -0.034 ± 0.028
6 | LEELEQFAKTFKQRRIKLGFTQGDVGLAMGKLYGNDFSQTTISRFEALNLSFKNWCKLKPLLEKWLNDAE [M55W] | -0.271 ± 0.031
7 | LEELEQFAKTFKQRRIKLGFTQGDVGLAMGKLYGNDFSQTTISRFEALNLSFKNPCKLKPLLEKWLNDAE [M55P] | -0.991 ± 0.055
8 | LEELEQFAKTFKQRRIKLGFTQGDVGLAMGKLYGNDFSQTTISRFEALNLSFKNVCKLKPLLEKWLNDAE [M55V] | -0.167 ± 0.041
9 | LEELEQFAKTFKQRRIKLGFTQGDVGLAMGKLYGNDFSQTTISRFEALNLSFKNRCKLKPLLEKWLNDAE [M55R] | -0.48 ± 0.023
10 | LEELEQFAKTFKQRRIKLGFTQGDVGLAMGKLYGNDFSQTTISRFEALNLSFKNMCKVKPLLEKWLNDAE [L58V] | 0.005 ± 0.02
11 | LEELEQFAKTFKQRRIKLGFTQGDVGLAMGKLYGNDFSQTTISRFEALNLSFKNMCKHKPLLEKWLNDAE [L58H] | -0.046 ± 0.038
12 | LEELEQFAKTFKQRRIKLGFTQGDVGLAMGKLYGNDFSQTTISRFEALNLSFKNMCKCKPLLEKWLNDAE [L58C] | -0.019 ± 0.029
13 | LEELEQFAKTFKQRRIKLGFTQGDVGLAMGKLYGNDFSQTTISRFEALNLSFKNMCKAKPLLEKWLNDAE [L58A] | -0.062 ± 0.021
14 | LEELEQFAKTFKQRRIKLGFTQGDVGLAMGKLYGNDFSQTTISRFEALNLSFKNMCKKKPLLEKWLNDAE [L58K] | -0.202 ± 0.063
15 | LEELEQFAKTFKQRRIKLGFTQGDVGLAMGKLYGNDFSQTTISRFEALNLSFKNMCKTKPLLEKWLNDAE [L58T] | -0.07 ± 0.026
16 | LEELEQFAKTFKQRRIKLGFTQGDVGLAMGKLYGNDFSQTTISRFEALNLSFKNMCKSKPLLEKWLNDAE [L58S] | -0.178 ± 0.025
17 | LEELEQFAKTFKQRRIKLGFTQGDVGLAMGKLYGNDFSQTTISRFEALNLSFKNMCKIKPLLEKWLNDAE [L58I] | -0.027 ± 0.055
18 | LEELEQFAKTFKQRRIKLGFTQGDVGLAMGKLYGNDFSQTTISRFEALNLSFKNMCKGKPLLEKWLNDAE [L58G] | -0.632 ± 0.028
19 | LEELEQFAKTFKQRRIKLGFTQGDVGLAMGKLYGNDFSQTTISRFEALNLSFKNMCKYKPLLEKWLNDAE [L58Y] | -0.115 ± 0.057

Row | Variant | abundance fitness
20 | LEELEQFAKTFKQRRIKLGFTQGDVGLAMGKLYGNDFSQTTISRFEALNLSFKNMCKQKPLLEKWLNDAE [L58Q] | -0.199 ± 0.04
21 | LEELEQFAKTFKQRRIKLGFTQGDVGLAMGKLYGNDFSQTTISRFEALNLSFKNMCKMKPLLEKWLNDAE [L58M] | 0.014 ± 0.062
22 | LEELEQFAKTFKQRRIKLGFTQGDVGLAMGKLYGNDFSQTTISRFEALNLSFKNMCKNKPLLEKWLNDAE [L58N] | -0.396 ± 0.065
23 | LEELEQFAKTFKQRRIKLGFTQGDVGLAMGKLYGNDFSQTTISRFEALNLSFKNMCKEKPLLEKWLNDAE [L58E] | -0.526 ± 0.06
24 | LEELEQFAKTFKQRRIKLGFTQGDVGLAMGKLYGNDFSQTTISRFEALNLSFKNMCKWKPLLEKWLNDAE [L58W] | 0.002 ± 0.035
25 | LEELEQFAKTFKQRRIKLGFTQGDVGLAMGKLYGNDFSQTTISRFEALNLSFKNMCKPKPLLEKWLNDAE [L58P] | -0.802 ± 0.03
26 | LEELEQFAKTFKQRRIKLGFTQGDVGLAMGKLYGNDFSQTTISRFEALNLSFKNMCKFKPLLEKWLNDAE [L58F] | -0.026 ± 0.034
27 | LEELEQFAKTFKQRRIKLGFTQGDVGLAMGKLYGNDFSQTTISRFEALNLSFKNMCKDKPLLEKWLNDAE [L58D] | -0.474 ± 0.052
28 | LEELEQFAKTFKQRRIKLGFTQGDVGLAMGKLYGNDFSQTTISRFEALNLSFKNMCKLVPLLEKWLNDAE [K59V] | -0.056 ± 0.033
29 | LEELEQFAKTFKQRRIKLGFTQGDVGLAMGKLYGNDFSQTTISRFEALNLSFKNMCKLSPLLEKWLNDAE [K59S] | -0.092 ± 0.023
30 | LEELEQFAKTFKQRRIKLGFTQGDVGLAMGKLYGNDFSQTTISRFEALNLSFKNMCKLQPLLEKWLNDAE [K59Q] | -0.037 ± 0.045
31 | LEELEQFAKTFKQRRIKLGFTQGDVGLAMGKLYGNDFSQTTISRFEALNLSFKNMCKLWPLLEKWLNDAE [K59W] | -0.026 ± 0.044
32 | LEELEQFAKTFKQRRIKLGFTQGDVGLAMGKLYGNDFSQTTISRFEALNLSFKNMCKLDPLLEKWLNDAE [K59D] | -0.672 ± 0.084
33 | LEELEQFAKTFKQRRIKLGFTQGDVGLAMGKLYGNDFSQTTISRFEALNLSFKNMCKLTPLLEKWLNDAE [K59T] | -0.033 ± 0.031
34 | LEELEQFAKTFKQRRIKLGFTQGDVGLAMGKLYGNDFSQTTISRFEALNLSFKNMCKLLPLLEKWLNDAE [K59L] | -0.06 ± 0.023
35 | LEELEQFAKTFKQRRIKLGFTQGDVGLAMGKLYGNDFSQTTISRFEALNLSFKNMCKLRPLLEKWLNDAE [K59R] | -0.005 ± 0.023
36 | LEELEQFAKTFKQRRIKLGFTQGDVGLAMGKLYGNDFSQTTISRFEALNLSFKNMCKLCPLLEKWLNDAE [K59C] | -0.134 ± 0.039
37 | LEELEQFAKTFKQRRIKLGFTQGDVGLAMGKLYGNDFSQTTISRFEALNLSFKNMCKLFPLLEKWLNDAE [K59F] | -0.138 ± 0.037
38 | LEELEQFAKTFKQRRIKLGFTQGDVGLAMGKLYGNDFSQTTISRFEALNLSFKNMCKLPPLLEKWLNDAE [K59P] | -0.72 ± 0.027
